B1: IQ calmodulin-binding motif-containing protein 1 (Homo sapiens), Q15051 (parent)
chain: MKPTGTDPRILSIAAEVAKSPEQNVPVILLKLKEIINITPLGSSELKKIKQDIYCYDLIQYCLLVLSQDYSRIQGGWTTISQLTQILSHCCVGLEPGEDAEEFYNELLPSAAENFLVLGRQLQTCFINAAKAEEKDELLHFFQIVTDSLFWLLGGHVELIQNVLQSDHFLHLLQADNVQIGSAVMMMLQNILQINSGDLLRIGRKALYSILDEVIFKLFSTPSPVIRSTATKLLLLMAESHQEILILLRQSTCYKGLRRLLSKQETGTEFSQELRQLVGLLSPMVYQEVEEQKLHQAACLIQAYWKGFQTRKRLKKLPSAVIALQRSFRSKRSKMLLEINRQKEEEDLKLQLQLQRQRAMRLSRELQLSMLEIVHPGQVEKHYREMEEKSALIIQKHWRGYRERKNFHQQRQSLIEYKAAVTLQRAALKFLAKCRKKKKLFAPWRGLQELTDARRVELKKRVDDYVRRHLGSPMSDVVSRELHAQAQERLQHYFMGRALEERAQQHREALIAQISTNVEQLMKAPSLKEAEGKEPELFLSRSRPVAAKAKQAHLTTLKHIQAPWWKKLGEESGDEIDVPKDELSIELENLFIGGTKPP

Variants of: B1
Conditions: with ce290_human CEP290, O15078
Sequence of ce290_human CEP290, O15078 (O15078 whole entry): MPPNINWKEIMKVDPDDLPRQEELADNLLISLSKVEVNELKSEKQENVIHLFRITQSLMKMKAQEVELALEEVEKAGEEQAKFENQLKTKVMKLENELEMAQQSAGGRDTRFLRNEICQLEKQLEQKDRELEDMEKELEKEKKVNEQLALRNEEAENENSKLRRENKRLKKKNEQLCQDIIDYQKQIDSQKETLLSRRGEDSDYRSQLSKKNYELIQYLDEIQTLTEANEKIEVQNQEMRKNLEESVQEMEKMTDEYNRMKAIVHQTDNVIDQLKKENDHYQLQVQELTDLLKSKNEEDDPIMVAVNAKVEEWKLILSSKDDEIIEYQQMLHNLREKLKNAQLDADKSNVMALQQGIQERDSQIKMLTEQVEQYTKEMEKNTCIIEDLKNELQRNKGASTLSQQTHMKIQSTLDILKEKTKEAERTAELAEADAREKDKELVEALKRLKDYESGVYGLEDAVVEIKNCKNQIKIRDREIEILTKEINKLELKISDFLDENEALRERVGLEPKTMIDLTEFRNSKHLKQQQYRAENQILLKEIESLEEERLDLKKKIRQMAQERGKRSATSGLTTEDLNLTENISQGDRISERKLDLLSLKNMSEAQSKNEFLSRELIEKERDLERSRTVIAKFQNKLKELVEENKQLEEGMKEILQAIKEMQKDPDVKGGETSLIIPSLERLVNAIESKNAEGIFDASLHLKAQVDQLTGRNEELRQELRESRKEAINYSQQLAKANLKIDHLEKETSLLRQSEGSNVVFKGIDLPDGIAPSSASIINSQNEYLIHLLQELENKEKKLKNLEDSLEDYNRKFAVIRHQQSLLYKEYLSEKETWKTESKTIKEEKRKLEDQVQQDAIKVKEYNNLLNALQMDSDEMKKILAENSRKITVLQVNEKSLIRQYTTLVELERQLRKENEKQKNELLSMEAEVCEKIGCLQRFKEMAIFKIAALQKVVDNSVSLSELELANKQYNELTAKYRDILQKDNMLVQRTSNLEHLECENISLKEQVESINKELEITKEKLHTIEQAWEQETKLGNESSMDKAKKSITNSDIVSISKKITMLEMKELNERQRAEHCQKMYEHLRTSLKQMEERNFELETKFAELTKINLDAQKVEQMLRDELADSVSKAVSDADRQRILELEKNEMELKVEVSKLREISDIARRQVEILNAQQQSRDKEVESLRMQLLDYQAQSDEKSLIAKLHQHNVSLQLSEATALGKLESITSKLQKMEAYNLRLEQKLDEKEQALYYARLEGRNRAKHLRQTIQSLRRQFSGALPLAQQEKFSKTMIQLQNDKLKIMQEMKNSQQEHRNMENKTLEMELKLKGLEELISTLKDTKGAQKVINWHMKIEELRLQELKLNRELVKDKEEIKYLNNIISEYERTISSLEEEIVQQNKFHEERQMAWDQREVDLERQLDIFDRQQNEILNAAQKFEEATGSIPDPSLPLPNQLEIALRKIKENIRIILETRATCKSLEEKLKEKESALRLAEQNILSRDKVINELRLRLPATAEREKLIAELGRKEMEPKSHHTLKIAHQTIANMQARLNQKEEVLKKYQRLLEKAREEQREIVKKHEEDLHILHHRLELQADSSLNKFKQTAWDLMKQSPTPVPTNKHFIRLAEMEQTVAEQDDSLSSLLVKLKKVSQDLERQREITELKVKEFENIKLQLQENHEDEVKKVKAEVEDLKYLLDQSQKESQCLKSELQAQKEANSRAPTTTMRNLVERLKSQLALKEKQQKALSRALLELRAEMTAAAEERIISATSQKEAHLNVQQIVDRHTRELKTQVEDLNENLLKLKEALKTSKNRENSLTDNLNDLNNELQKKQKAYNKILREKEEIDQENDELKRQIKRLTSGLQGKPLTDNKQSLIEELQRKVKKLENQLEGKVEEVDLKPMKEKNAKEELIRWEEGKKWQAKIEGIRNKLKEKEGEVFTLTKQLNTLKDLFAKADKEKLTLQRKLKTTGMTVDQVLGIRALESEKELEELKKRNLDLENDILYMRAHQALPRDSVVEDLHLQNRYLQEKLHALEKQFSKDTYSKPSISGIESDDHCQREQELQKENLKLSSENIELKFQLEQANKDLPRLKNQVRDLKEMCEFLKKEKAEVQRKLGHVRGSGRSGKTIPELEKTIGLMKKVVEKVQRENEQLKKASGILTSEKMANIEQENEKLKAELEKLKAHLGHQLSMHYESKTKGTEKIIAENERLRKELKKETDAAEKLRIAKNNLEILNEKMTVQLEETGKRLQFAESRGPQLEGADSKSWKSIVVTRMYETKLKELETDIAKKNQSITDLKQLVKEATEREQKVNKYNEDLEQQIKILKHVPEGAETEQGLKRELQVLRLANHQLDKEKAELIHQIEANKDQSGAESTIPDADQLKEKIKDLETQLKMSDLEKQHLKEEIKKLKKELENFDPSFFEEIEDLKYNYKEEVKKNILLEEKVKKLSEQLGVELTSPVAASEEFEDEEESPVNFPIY

Row | Variant | effect of a mutation on the interaction
1 | MKPTGTDPRILSIAAEVAKSPEQNVPVILLKLKEIINITPLGSSELKKIKQDIYCYDLIQYCLLVLSQDYSRIQGGWTTISQLTQILSHCCVGLEPGEDAEEFYNELLPSAAENFLVLGRQLQTCFINAAKAEEKDELLHFFQIVTDSLFWLLGGHVELIQNVLQSDHFLHLLQADNVQIGSAVMMMLQNILQINSGDLLRIGRKALYSILDEVIFKLFSTPSPVIRSTATKLLLLMAESHQEILILLRQSTCYKGLRRLLSKQETGTEFSQELRQLVGLLSPMVYQEVEEQKLHQAACLIQAYWKGFQTRKRLKKLPSAVIALQRSFRSKRSKMLLEINRQKEEEDLKLQLQLQRQRAMRLSRELQLSMLEIVHPGQVEKHYREMEEKSALIIQKHWRGYRERKNFHQQRQSLIEYKAAVTLQRAALKFLAKCRKKKKLFAPWRGLQELTDARRVELKKRVDDYVRRHLGSPMSDVVSRELHAQAQERLQHYFMGRALEERAQQHREALIAQISTNVEQLMKAPSLKEAEGKEPELFLSRSRPVAAKKKQAHLTTLKHIQAPWWKKLGEESGDEIDVPKDELSIELENLFIGGTKPP [A549K] | disrupting interaction

— IntAct's records for PubMed 23446637
